Numbering of substitutions follows the chain as printed. Numbers in names are those of the source.

The text below walks through data of US8110387B2, “Polypeptide having NADH dependent HMF reductase activity” (C5 Ligno Technologies Lund AB, priority 2007, dated 2012).

Format in all cases: biochemical, Saccharomyces cerevisiae
Data set [1] in a line: In vitro NADH-dependent furan reductase activity of ADH1 mutants in cell extracts, furfural as substrate. The arrangement: key: —: no detectable activity; detectable activity (ranging from moderate (+) to very high (+++)); detectable activity (ranging from moderate (+) to very high (+++)); detectable activity (ranging from moderate (+) to very high (+++)). The settings on record: 10 mM furfural, 200 μM NADH, cell extract of CEN.PK 113-5D transformant, pH 6.7, 30° C. As to the method: (§1) Plasmid carrying individual or combined mutations within the ADH1 gene were introduced in strain CEN.PK 113-5D by transformation according to the lithium acetate method (Gietz et al., 1992, Improved method for high efficiency transformation of intact yeast cells. Nucleic Acids Research 20:1425). Selection was performed on SD plates without uracil. The resulting strains were grown aerobically at 30° C. in 25 mL SD medium without uracil (in 250 mL baffled flask). Cell extracts were prepared by harvesting the cells at OD620 7.5-8.5, re-suspending the cells in Y-PER solution (Pierce, Rockford, Ill., USA), 1 mL/0.6gr cells, shaking at room temperature for 50 min. The supernatant was collected after centrifugation for 20 min at 15000 g. In vitro NADH-dependent furan reductase activity was measured by following the oxidation of NADH at 340 nm in a Hitachi U-2000 spectrophotometer (Hitachi, Tokyo, Japan). The assay consisted of 10 mM furaldehyde (HMF or furfural), 200 μM NADH and cell extract in 100 mM phosphate buffer (pH 6.7) at 30° C.

Data set [2] is described as follows: In vitro NADH-dependent furan reductase activity of ADH1 mutants in cell extracts, HMF as substrate. The arrangement: key: —: no detectable activity; detectable activity (ranging from moderate (+) to very high (+++)); detectable activity (ranging from moderate (+) to very high (+++)); detectable activity (ranging from moderate (+) to very high (+++)). Conditions: 10 mM HMF, 200 μM NADH, cell extract of CEN.PK 113-5D transformant, pH 6.7, 30° C. As to the method:
as §1

The nature of data set [3]: Enzyme kinetics of Adh1 variants, NADH-dependent reduction of furfural. How it is done:
(§2) Cells were grown aerobically at 30° C. in 25 mL SD medium without uracil (in 250 mL baffled flask). Cell extracts were prepared by harvesting the cells at OD620 7.5-8.5, re-suspending the cells in Y-PER solution (Pierce, Rockford, Ill., USA), 1 mL/0.6 gr cells, shaking at room temperature for 50 min. The supernatant was collected after centrifugation for 20 min at 15000 g.
(§3) In vitro NADH-dependent furan reductase activity was measured by following the oxidation of NADH at 340 nm in a Hitachi U-2000 spectrophotometer (Hitachi, Tokyo, Japan). NADH-dependent aldehyde reduction was determined (Wahlbom and Hahn-Hägerdal, 2002) with 200 μM NADH. Reduction kinetics were determined for acetaldehyde (range […]-100 mM), furfural (100 μM-20 mM) and HMF (500 μM-20 mM). For native Adh1 furfural was used up to 40 mM.
(§4) Modeling was performed according to the Michaelis-Menten equation with the addition of a substrate inhibition constant: V=(Vmax·[S])/(Km+[S]+[S]2/KI), V—velocity, Vmax—maximal velocity, Km—affinity constant, Ki—substrate inhibition constant, and [S]—substrate concentration. Parameter value estimation was according to the least square method, using the solver function in Microsoft® Excel 2002. HMF activity parameters of strain BY474-ADH1-S117L were estimated without the substrate inhibition constant due to a clear discrepancy of the substrate inhibition model with actual data.

Data set [4] can be described thus: Enzyme kinetics of Adh1 variants, NADH-dependent reduction of acetaldehyde. As to the method:
as §2, §3, §4

Setting [5] is: 200 μM NADH, cell extract of BY4741.

B1: S110P: native Adh1 with the single substitution S110P (protein, listed as Saccharomyces cerevisiae)
chain: MSIPETQKGVIFYESHGKLEYKDIPVPKPKANELLINVKYSGVCHTDLHAWHGDWPLPTKLPLAGGHEGAGVVVGMGENVKGWKIGDYAGIKWLNGSCMACEYCELGNEPNCPHADSSGYTHDGSFQQYATADAVQAAHIPQGTDLAEVAPVLCAGITVYKALKSANLMAGHWVAISGAAGGLGSLAVQYAKAMGYRVLGIDGGEGKEELFRSIGGEVFIDFTKEKDIVGAVLKATDGGAHGVINVSVSEAAIEASTRYVRANGTTVLVGMPAGAKCCSDVFNQVVKSISIVGSYVGNRADTREALDFFARGLVKSPIKVVGLSTLPEIYEKMEKGQIVGRYVVDTSK
Turning to B1, the “NADH-dependent Activity Furfural Reductase” value in data set [1] was “++”.

B2: Y295C: native Adh1 with the single substitution Y295C (protein, listed as Saccharomyces cerevisiae)
chain: B1 chain with P110S, Y295C
As to B2, the “NADH-dependent Activity HMF reductase” value in data set [2] is on record as “+”. For the same molecule, the “NADH-dependent Activity Furfural Reductase” value in data set [1] is listed as “+++”.

B3: V59T-Q148E-I152V-L117S-Y295C: mutated Adh1 from TMB3000 with reverse mutation at position 110 (protein, UniProt P00330 2-348, looked up, variant V59T Q148E I152V L117S Y295C)
Alcohol dehydrogenase 1: SIPETQKGVIFYESHGKLEYKDIPVPKPKANELLINVKYSGVCHTDLHAWHGDWPLPTKLPLVGGHEGAGVVVGMGENVKGWKIGDYAGIKWLNGSCMACEYCELGNESNCPHADSSGYTHDGSFQQYATADAVQAAHIPQGTDLAEVAPVLCAGITVYKALKSANLMAGHWVAISGAAGGLGSLAVQYAKAMGYRVLGIDGGEGKEELFRSIGGEVFIDFTKEKDIVGAVLKATDGGAHGVINVSVSEAAIEASTRYVRANGTTVLVGMPAGAKCCSDVFNQVVKSISIVGSCVGNRADTREALDFFARGLVKSPIKVVGLSTLPEIYEKMEKGQIVGRYVVDTSK
Regarding B3, in data set [2], the “NADH-dependent Activity HMF reductase” value is on record as “+”. Also, in data set [1], the “NADH-dependent Activity Furfural Reductase” value was “+”.

B4: BY4741-control: native S. cerevisiae Adh1 (V59, S110, L117, Q148, I152, Y295) overexpressed in ΔAdh1 strain BY4741 (protein, UniProt P00330 2-348, looked up)
Alcohol dehydrogenase 1: B3 Alcohol dehydrogenase 1 with T58V, S116L, E147Q, V151I, C294Y
By Km is commonly meant the substrate concentration at which the rate is half of its maximum. Regarding B4, the “[S]Vmax - substrate concentration at observed Vmax” value in data set [3] stood at 30 mM; in data set [4], 1 mM. Further, the “Ki (substrate inhibition constant)” value in data set [3] (setting [5]) amounted to 1363 mM; in data set [4] (setting [5]) it was 12.5326 mM. Besides, the figures for the “obsVmax (observed Vmax)” value in data set [3] (substrate furfural) and in data set [4] (substrate acetaldehyde) were 4345 mU/mg and 35300 mU/mg, respectively. Further, the Km was 18.8 mM in data set [3] (substrate furfural, 200 μM NADH, cell extract of BY4741) and 0.217 mM in data set [4] (substrate acetaldehyde, 200 μM NADH, cell extract of BY4741). The Vmax is reported as 6530 (mU)/mg in data set [3] (substrate furfural, 200 μM NADH, cell extract of BY4741, model with substrate inhibition) and 45070 (mU)/mg in data set [4] (substrate acetaldehyde, 200 μM NADH, cell extract of BY4741, model with substrate inhibition).

B5: V59T-Q148E-I152V-S110P-L117S: mutated Adh1 from TMB3000 with reverse mutation at position 295 (protein, UniProt P00330 2-348, looked up, variant V59T Q148E I152V S110P L117S)
Alcohol dehydrogenase 1: B3 Alcohol dehydrogenase 1 with S109P, C294Y
As to B5, in data set [1], the “NADH-dependent Activity Furfural Reductase” value is recorded as “+”.
